Source: patent US20240294611A1
“And” between values parts separate entries of the source, which are not always exact repeats. Equal values may be shown once.

Experiments:
[1] = biological target: SARS-CoV-2 HexaPro spike (SARS-CoV-2) (UniProt P0DTC2)
[2] = biological target: SARS-CoV spike without stabilizing modifications on pseudovirus (SARS-CoV) (UniProt P59594); experiment: cell-based or functional assay
[3] = biological target: wild-type SARS-CoV-2 spike without stabilizing modifications (on cells or pseudovirus) (SARS-CoV-2) (UniProt P0DTC2); experiment: cell-based or functional assay

For antibody S309 (Pinto et al., 2020), the Kd [1] was 18 nM and 24 nM, the Pseudovirus IC50 [2] was 0.5 nM and the Pseudovirus IC50 [3] was 1 nM.

Work on “isotype control antibody with irrelevant binding” yielded a Pseudovirus IC50 [2] of over 5000 nM and a Pseudovirus IC50 [3] of over 5000 nM.
